Laboratory results reported in the nanobody polyreactivity screen of Harvey et al. (2022).

Experiment: yeast display, Sf9 membrane polyspecificity reagent, FACS + sequencing; frameworks hold sequencing errors
Summary of the method: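 Sorting gates, low and high (top ~1%), were placed on anti-HA fluorescence to track expression and on streptavidin fluorescence to track reagent binding. A clone's polyreactivity label is taken from the gate it came out of. The reagent was 10% biotinylated, detergent-solubilized Sf9 membrane, applied for 1 hour at 4 °C to galactose-induced yeast display cells.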

Sequence | polyreactivity (PSR sort gate)
QVQLVESGGGLVQAGGSLRLSCAASGRTFYIYAMGWYRQAPGKERELVAAISTTGGRTYYADSVKGRFTISRDNAKNTVYLQMNSLKPVDTAVYFCAAPARTRYDYWGQGTQVTVSS | high polyreactivity
QVQLVESGGGLVQAGGSLRLSCAASGRTFYIYVMGWYRQAPGKERELVAGITWRGGITYYADSVKGRFTISRDNAKNNVYLQMNSLKPEDTAVYYCAVDDLGSEYDYWGQGTQVTVSS | low polyreactivity
QVQLVESGGGLVQAGGSLRLSCAASGRTFYKNAMGWYRQAPGKERELVARISRGGSTNYADSVKGRFTISRDNAKNTVYLQMNSLKPEDTAVYYCAKEYGTHGKTYDYWGQGTQVTVSS | high polyreactivity
QVQLVESGGGLVQAGGSLRLSCAASGRTFYKNAMGWYRQAPGKERELVATITSGGSTNYADSVKGRFTISRDNAKNTVYLQMNSLKPEDTAVYYCAAAKPVQFRIAQAHVGYWGQGTQVTVSS | low polyreactivity
QVQLVESGGGLVQAGGSLRLSCAASGRTFYKNTMGWYIQAPGKERELVATISQRGGSTYYADSVKGRFTISRDNAKNTVYLQMNSLKPEDTAVYYCNARKYTQSIHYDYWGQGTQVTVSS | high polyreactivity
QVQLVESGGGLVQAGGSLRLSCAASGRTFYKNTMGWYRQAPGKERELVAAIRWRGSSTYYADSVKGRFTISRDNAKNSVYLKMNSLKPEDTAVYYCAAPSSVRGKVISADYAYWGQGTQVTVSS | high polyreactivity
QVQLVESGGGLVQAGGSLRLSCAASGRTFYKNTMGWYRQAPGKERELVATISQRRGSTYYADSVKGRFTISRDNAKNTVYLQMNSLKTEDTAVYYCNARKYTQSIHYDYWGQGTQVTVSS | high polyreactivity
QVQLVESGGGLVQAGGSLRLSCAASGRTFYKYAKGWYRQAPGKERELVAAISWSGGSTYYADSVKGRFTISRDNAKNTVYLLMKSLKPEDTAVYYSNRASYPFVKPRYECWGQGTQVTVSS | high polyreactivity
QVQLVESGGGLVQAGGSLRLSCAASGRTFYKYAMGWSRQAPGKERELVAAISSDGTTYYADSVKGRFTISRDNAKNTVYLQMNSLKPEDTAVYYCAADPPPPFLYVSVQEYDYWGQGTQVTVSS | low polyreactivity
QVQLVESGGGLVQAGGSLRLSCAASGRTFYKYAMGWYIQAPGKERELVARISGRGGRTYYADSVKGRFTISRDNAKNTVYLQMNSLKPEDTEVYYCASDWVPINVKSLVVTYDYWGQGTQVTVSS | low polyreactivity
QVQLVESGGGLVQAGGSLRLSCAASGRTFYLNAMGWYRQAPGKERELVAAIRFSGGSTYYADSVKGRFTISRDNAKNTVLLQMNSLKPEDTAVYYCNAGPYHSLYPTVSEYGYWGQGTQVTVSS | low polyreactivity
QVQLVESGGGLVQAGGSLRLSCAASGRTFYLNTMGWYRQAPGKERELVAGITSSGTRTYYADSVKGRFTISRDNAKNTVYLQMNSLKPEDTAVYYSAKTWGGQIRPRYRYGSGYDYWGQGTQVTVSS | high polyreactivity
QVQLVESGGGLVQAGGSLRLSCAASGRTFYLYAMGWYRQAPGKERELVAAINTNGARTYYADSVKGRFTISRDHAKNTVYLQMNSLIPEDTAVYYCNADAYRVIANWIYDYWGQGTQVTVSS | low polyreactivity
QVQLVESGGGLVQAGGSLRLSCAASGRTFYLYGMGWYRQAPGKERELVAAITITDSTNYADSVKGRFTISRDNAKNTVYLQMNSLKPEDTAVYYCAKRRYYSTPRWGSSTYDYWGQGTQVTVSS | low polyreactivity
QVQLVESGGGLVQAGGSLRLSCAASGRTFYNAMGWYRQAPGKERELVAAITTGGGTKYADSVKGRFTISRDNAKNTVYLQMNSLKPEDTAVYYCNTDEWYHFYHGAHKYDYWGQGTQVTVSS | low polyreactivity
QVQLVESGGGLVQAGGSLRLSCAASGRTFYNNAMGWYRQAPGKERELVAVISRGGTTYYPDSVKGRFTISRDNAKNTVYLQMNSLKAEDTSVYYCAKQVPSGDSSSQMGSWGQGTQVTVSS | low polyreactivity
